Patent publication US20230235068A1 (published 2023)
Blank lines part the entries; values can stand above or below the binder they belong to.

What was measured:
[1] = target: T1, recombinant rat LEPR extracellular domain expressed with a C-terminal myc-myc-hexahistidine tag (rat, UniProt Q62959 22-839); assay: SPR, captured mAb, 25 C
T1 construct: Monomeric construct; also called rLEPR.MMH; rLEPR-MMH
Experimental: (§1) Equilibrium dissociation constants (KD values) for antigen binding to purified anti-LEPR monoclonal antibodies of the invention were determined using a real-time surface plasmon resonance biosensor using a Biacore 4000 instrument. All binding studies were performed in running buffer containing 10 mM HEPES, 150 mM NaCl, 3 mM EDTA, and 0.05% v/v Surfactant Tween-20, pH 7.4 (HBS-ET running buffer) at 25° C. and 37° C. The Biacore sensor surface was first derivatized by amine coupling with a monoclonal mouse anti-human Fc antibody (GE, #BR-1008-39) to the capture anti-LEPR monoclonal antibodies. […] The dissociation of monoclonal antibody bound LEPR reagent was monitored for 10 minutes in HBS-ET running buffer. Kinetic association (kₐ) and dissociation (kd) rate constants were determined by fitting the real-time binding sensorgrams to a 1:1 binding model with mass transport limitation using Scrubber 2.0c curve-fitting software. Binding dissociation equilibrium constants (KD) and dissociative half-lives (t½) were calculated from the kinetic rate constants as: […]

[2] = target: T2, recombinant mouse LEPR extracellular domain expressed with a C-terminal myc-myc-hexahistidine tag (mouse, UniProt P48356 22-839); assay: SPR, captured mAb, 37 C
T2 construct: Monomeric construct; also called mLEPR.MMH; mLEPR-MMH
T2 sequence (P48356 other isoform, or with tags, fused parts or gaps): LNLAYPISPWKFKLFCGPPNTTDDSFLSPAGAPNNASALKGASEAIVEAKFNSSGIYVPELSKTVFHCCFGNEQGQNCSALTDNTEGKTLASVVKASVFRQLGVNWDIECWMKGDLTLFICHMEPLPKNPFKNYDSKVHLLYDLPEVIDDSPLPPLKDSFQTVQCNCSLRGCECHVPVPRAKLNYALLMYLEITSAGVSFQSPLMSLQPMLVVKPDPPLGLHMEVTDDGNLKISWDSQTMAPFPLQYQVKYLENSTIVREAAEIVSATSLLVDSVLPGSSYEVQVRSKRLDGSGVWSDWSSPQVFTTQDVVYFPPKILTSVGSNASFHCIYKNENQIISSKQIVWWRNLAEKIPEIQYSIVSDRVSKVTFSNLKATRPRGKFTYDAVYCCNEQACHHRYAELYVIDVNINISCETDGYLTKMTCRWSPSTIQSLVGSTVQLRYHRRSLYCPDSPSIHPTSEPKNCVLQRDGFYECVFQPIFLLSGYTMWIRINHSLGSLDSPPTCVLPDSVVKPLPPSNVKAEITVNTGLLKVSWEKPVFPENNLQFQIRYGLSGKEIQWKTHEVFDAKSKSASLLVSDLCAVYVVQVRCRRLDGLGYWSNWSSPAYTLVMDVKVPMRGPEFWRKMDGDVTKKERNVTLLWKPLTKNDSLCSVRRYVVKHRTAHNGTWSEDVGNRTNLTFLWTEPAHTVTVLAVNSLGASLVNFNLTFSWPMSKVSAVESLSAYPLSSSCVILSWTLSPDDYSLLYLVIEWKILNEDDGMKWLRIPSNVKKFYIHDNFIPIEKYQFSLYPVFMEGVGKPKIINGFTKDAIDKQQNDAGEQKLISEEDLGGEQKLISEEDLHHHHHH
Experimental: as §1

T1 sequence (Q62959 other isoform, or with tags, fused parts or gaps): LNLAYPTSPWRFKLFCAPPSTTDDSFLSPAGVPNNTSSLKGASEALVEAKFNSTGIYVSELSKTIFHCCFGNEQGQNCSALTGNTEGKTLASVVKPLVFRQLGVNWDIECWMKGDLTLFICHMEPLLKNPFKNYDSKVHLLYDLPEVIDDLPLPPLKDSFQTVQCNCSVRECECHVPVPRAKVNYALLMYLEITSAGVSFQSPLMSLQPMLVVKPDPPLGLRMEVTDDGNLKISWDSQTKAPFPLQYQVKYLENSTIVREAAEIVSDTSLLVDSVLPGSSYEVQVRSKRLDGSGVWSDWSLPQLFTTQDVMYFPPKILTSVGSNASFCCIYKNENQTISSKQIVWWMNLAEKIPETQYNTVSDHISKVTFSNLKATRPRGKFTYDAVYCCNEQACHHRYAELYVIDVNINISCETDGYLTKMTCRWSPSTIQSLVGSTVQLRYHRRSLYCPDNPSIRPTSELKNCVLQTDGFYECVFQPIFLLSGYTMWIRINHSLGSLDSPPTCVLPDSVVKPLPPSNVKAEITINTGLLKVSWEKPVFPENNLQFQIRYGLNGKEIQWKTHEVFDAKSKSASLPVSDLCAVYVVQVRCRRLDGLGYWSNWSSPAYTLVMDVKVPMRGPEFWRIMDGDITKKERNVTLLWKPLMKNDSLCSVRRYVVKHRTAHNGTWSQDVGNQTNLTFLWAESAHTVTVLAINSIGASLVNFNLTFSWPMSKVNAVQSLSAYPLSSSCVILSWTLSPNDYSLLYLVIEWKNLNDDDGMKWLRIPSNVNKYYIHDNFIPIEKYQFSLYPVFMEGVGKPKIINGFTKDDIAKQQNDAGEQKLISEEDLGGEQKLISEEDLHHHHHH

100 nM rLEPR-MMH Bound (RU) [1]: 10 RU
B1: H4H17322P2 (antibody, human IgG4, V domains shown)
VH: QLQLQESGPGLVKPSETLSLTCTVSGASISSSRFYGGWIRQPPGKGLEWIGDIYYSGNTYYNPSLQSRVTISVDTSKNQFSLKLSSVTAADTAVYYCARHLMITFGGLIVEGFDIWGQGTMVTVSS
VL: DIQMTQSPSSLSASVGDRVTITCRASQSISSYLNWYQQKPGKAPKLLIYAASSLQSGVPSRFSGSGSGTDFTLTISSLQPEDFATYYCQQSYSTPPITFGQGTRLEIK
notes: Fully human variable regions; H4H prefix = human IgG4 Fc

100 nM mLEPR-MMH Bound (RU) [2]: 3 RU
B2: H4H18462P2 (antibody, human IgG4, V domains shown)
VH: EVQLVESGGDLVQPGRSLRLSCAASGFTFSSFAMSWVRQAPGRGLEWVSSLSDSGDNTYYADSVKGRFTISRDNSKNTLYLQMNNLRAEDTAVYYCAKDLFSGWLFHGFDVWGQGTMVTVSS
VL: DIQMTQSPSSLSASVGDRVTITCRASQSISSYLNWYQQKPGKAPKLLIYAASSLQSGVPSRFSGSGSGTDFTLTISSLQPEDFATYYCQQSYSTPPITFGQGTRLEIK
notes: as for B1
